The target of assay [1] is T1, High-conductance, Ca2+-activated K+ channel from rat skeletal muscle (rat (endogenous in skeletal muscle), UniProt Q62976 1-1209). Briefly: single-channel recording in planar lipid bilayers.
The target of assay [2] is T1, High-conductance, Ca2+-activated K+ …. Briefly: single-channel recording in planar lipid bilayers. The source holds these as a separate data set.

In general, koff refers to the rate constant with which the complex falls apart. Read a high koff as a short-lived complex.

Where two headings read alike, the source gives them in different places.

T1 sequence (Q62976 whole entry): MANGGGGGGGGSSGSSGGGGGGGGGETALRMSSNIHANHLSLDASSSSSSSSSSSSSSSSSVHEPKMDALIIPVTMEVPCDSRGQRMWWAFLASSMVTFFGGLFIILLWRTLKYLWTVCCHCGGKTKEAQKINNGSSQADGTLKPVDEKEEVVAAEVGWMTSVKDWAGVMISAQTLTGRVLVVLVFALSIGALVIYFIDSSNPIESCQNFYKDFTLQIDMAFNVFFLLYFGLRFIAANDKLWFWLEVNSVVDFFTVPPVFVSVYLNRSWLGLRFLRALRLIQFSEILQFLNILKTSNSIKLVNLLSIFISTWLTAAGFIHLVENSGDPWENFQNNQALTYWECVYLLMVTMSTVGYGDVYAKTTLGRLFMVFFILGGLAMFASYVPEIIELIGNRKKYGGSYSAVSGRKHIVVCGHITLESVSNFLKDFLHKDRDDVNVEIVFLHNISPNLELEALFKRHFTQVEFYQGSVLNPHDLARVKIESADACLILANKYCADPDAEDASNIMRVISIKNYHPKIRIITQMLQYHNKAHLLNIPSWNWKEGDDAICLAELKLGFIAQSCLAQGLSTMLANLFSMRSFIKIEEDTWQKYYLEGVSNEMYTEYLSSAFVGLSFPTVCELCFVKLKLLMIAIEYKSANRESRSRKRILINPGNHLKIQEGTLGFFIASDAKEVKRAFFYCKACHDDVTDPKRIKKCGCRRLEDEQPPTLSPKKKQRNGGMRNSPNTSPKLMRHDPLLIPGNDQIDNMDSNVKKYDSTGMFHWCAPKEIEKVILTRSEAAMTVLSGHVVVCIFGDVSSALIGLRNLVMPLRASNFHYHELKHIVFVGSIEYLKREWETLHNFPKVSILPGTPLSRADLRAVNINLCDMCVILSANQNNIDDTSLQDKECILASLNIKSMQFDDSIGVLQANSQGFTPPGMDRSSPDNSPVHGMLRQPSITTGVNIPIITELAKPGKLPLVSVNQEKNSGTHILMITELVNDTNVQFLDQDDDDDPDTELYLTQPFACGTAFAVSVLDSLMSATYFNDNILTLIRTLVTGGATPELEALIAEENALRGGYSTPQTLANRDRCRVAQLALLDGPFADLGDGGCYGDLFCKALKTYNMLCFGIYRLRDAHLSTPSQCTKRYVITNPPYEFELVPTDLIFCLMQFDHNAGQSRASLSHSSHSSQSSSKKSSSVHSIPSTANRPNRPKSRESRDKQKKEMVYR

Take QFTNVSCTTSKECWSVCQRLHNTSRGKCMNKKCRCYS (natural protein) [Charybdotoxin]: the figures for the koff in assay [1] and in assay [2] were about 0.01 s⁻¹ and 0.01 s⁻¹, respectively.

These data come from article PMC2216138 (The Journal of General Physiology, 1988).
